# Experimental data from the RNAGym collection of RNA variant scans (doi:10.1073/pnas.2313332121).
# Fewer inactive variants are shown than the library holds.
# B1: TPR 5TU (parent)
# chain: GGAUCUUCUCGAUCUAACAAAAAAGACAAAUCUGCCACAAAGCUUGAGAGCAUCUUCGGAUGCAGAGGCGGCAGCCUUCGGUGGCGCGAUAGCGCCAACGUUCUCAACUAUGACACGCAAAACGCGUGCUCCGUUGAAUGGAGUUUAUCAUG
# Variants of: B1
# Experiment: polymerase ribozyme fitness, log enrichment relative to wild type (log ratio); higher = more active; in vitro selection for triplet polymerase activity
# How it was run: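 A single round of triplicate in vitro selection, including frozen incubation at −7 °C, was applied to PCR-built, transcribed mutant libraries of each subunit of a heterodimeric triplet polymerase ribozyme. Illumina sequencing of input and output libraries retained genotypes with ≥10 input reads and ≥1 read per output. Fitness is the base-2 logarithm of genotype enrichment divided by wild-type enrichment, from inverse-variance-weighted replicate averages.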
row,Variant,polymerase ribozyme fitness (log ratio)
1,A17U C32U G128U,≤ -4.2
2,A17G C96U,0.456
3,A17G C96G,-1.29
4,A17U C57G,-0.677
5,A17U U33G G34C A47G,≤ -4.2
6,C18G U61A,-0.567
7,A17G C85U A115U C125A U144G A150C,≤ -4.2
8,C18G A24C G34A C57A C85U A89U A97G A120G A121U,≤ -4.2
9,A17G G86A,-0.889
10,A17U U56C G74U C76U G84U C125G A138C,≤ -4.2
11,A17U C87A A98G C132U G136A,≤ -4.2
12,A17G U53A C79A G141C,≤ -4.2
13,C18G U146C,-0.0606
14,A17U C85G,-2.57
15,A17G G143U,-2.24
16,A17U C95U C99A A107G G133U,≤ -4.2
17,A17G C35U G83A,-0.796
18,A17U A19C C38A G42C U56A U78G A113U C132G A142G U148A,≤ -4.2
19,A17G G48U C87U A89U A119C,-2.96
20,C18G U56A,-0.693
21,A17G C51G U55A C57U G92U C103A C108A,≤ -4.2
22,C18G G80C,≤ -4.2
23,A17U C54A,-1.45
24,A17U A39G G50C A52C C96U C118U,≤ -4.2

row,Variant,polymerase ribozyme fitness (log ratio)
1,A17U A40C G58C C76U G84U U144G,-0.372
2,C18G A22G A23C C69A G86U,≤ -4.2
3,A17U G92U U101G U127G U148A,-4.01
4,C18G G42A C54U G94A,≤ -4.2
5,C18G A26U A47U G67C C105G U146A C149G,≤ -4.2
6,C18G A23C A29G C51U C72G G81A G140U,≤ -4.2
7,A17G C72U G88U U102C C105G,≤ -4.2
8,A17U C18A C54U U55G C75U C95A,-1.89
9,A17U A52U C57U C96U A98U C103G A121C G140C,≤ -4.2
10,A17U U33A C36A C76A G94A G117U C129U,≤ -4.2
11,C18A A52G C87A G92C C95A U104A,≤ -4.2
12,C18G A21G C93U C149A,≤ -4.2
13,C18G A24U U55A C69U G74A,-2.16
14,C18G C93U G143U,-3.08
15,A17U C79U C85U A97U,≤ -4.2
16,A17U C18U C96G C125U,-1.1
17,C18G U44G U55G G58C C93A,≤ -4.2
18,A17U A22U U90G C125A U139C,≤ -4.2
19,A17U A30G G42U G81C C85U A122U,≤ -4.2
20,C18G A19U G83U C95U C118U U144A,-3.01
21,C18G A21G,-0.433
22,A17U C18A C35U C36G C105A,≤ -4.2
23,A17G G25C G50A G86A C93G,≤ -4.2
24,A17G C54G,-1.5

row,Variant,polymerase ribozyme fitness (log ratio)
1,A17G C96A A119U,-0.596
2,A17U G50U C63U C93U C103U G126A C132U,-3.74
3,A17G C76U,-0.119
4,A17U A24U A39G C63G,-4.15
5,C18G G83A U145G U151G,≤ -4.2
6,C18G C35U C75U C95U A120G U134C,-2.68
7,A17U G83A G86U A142C,≤ -4.2
8,A17U C32A A37U A41U,≤ -4.2
9,A17U A26U U45A A64G C85G A138G G143U,≤ -4.2
10,A17U A49U C85A A97U,≤ -4.2
11,A17G G84U G126A,-1.39
12,C18G A20C C32A A40C U53A A91G,≤ -4.2
13,A17U C54A G92U C149U,-2.92
14,A17G G50U A66G G92C C95U G141A,≤ -4.2
15,C18G C38A C69G C87U G143U U145A,-3.47
16,A17U A40C C43G A52G G92C G128C,≤ -4.2
17,A17U G58C C95U C99A,-1.96
18,A17U A26C G62U U78G G100A G152U,≤ -4.2
19,A17U C38A U53A G81C C95U U104G,-4
20,A17G C99U,-0.271
21,C18G A26U G86C A150U,-3.07
22,C18G A113G U134A,-3.95
23,C18G G46A G74C U77A U135C,≤ -4.2
24,C18A A21U A29U U56A C95A A137G A142C,≤ -4.2

row,Variant,polymerase ribozyme fitness (log ratio)
1,C18G C27U A40U C51U A52C C57G G88U C105U,≤ -4.2
2,C18G C57A C93U U135C U145G,-3.11
3,A17U A22C A23G G25A G50C U55A C75A G80A C87U U90C C103A,≤ -4.2
4,A17U G65C A89U C93G G112C,≤ -4.2
5,C18G A29C C35A A89U G128A U144G,≤ -4.2
6,C18G A60C G84U C125U,-3.76
7,C18A G70A G84U U130G,≤ -4.2
8,C18G A24G G50U U55A A106C C125A,≤ -4.2
9,C18U A20U C103A G124A,-3.82
10,A17U C36G U61A C76G C103U A119U G141C,≤ -4.2
11,A17U G50C G68C C85G G94A A106U C123U U134A U135A,≤ -4.2
12,A17G G58A,1.26
13,C18G A21G A24U A41C U53G C54G G84U G92U C93G G143C,≤ -4.2
14,A17G G100U,-4.01
15,C18A A20U C27G A30U U56G A64U G84U U102C G112U G124C,≤ -4.2
16,A17U A19C G42U U56C C76A G88A,≤ -4.2
17,A17G G84A C93A A98G C129G,≤ -4.2
18,A17G G48A,-1.03
19,C18A G141C,-0.603
20,A17G G50C,-2.81
21,A17G G50U,0.372
22,A17U A39C A60C G86C C87A,≤ -4.2
23,A17G G133U,-3.47
24,A17G G141C,0.607

row,Variant,polymerase ribozyme fitness (log ratio)
1,C18G G59A C75U C93A A107C C118A,≤ -4.2
2,A17G G92A A120G A122G C125A,≤ -4.2
3,C18G U31A A120G G128U A137G,-4.17
4,A17U U31C G50A A64U C69A C99U,≤ -4.2
5,C18A C38U C51U C96G C116G U148A,≤ -4.2
6,C18G A41C C85A G126U,-0.946
7,A17U A28C C87A,≤ -4.2
8,A17U C36A C54U G74C A120U U144A,≤ -4.2
9,C18G C27U A37G A47C U55A G65U C85U,-4.19
10,A17U C87U,-1.75
11,A17U A41U G86U A113C,≤ -4.2
12,A17U C93U,-1.07
13,A17U C87U C125U,-1.39
14,C18G C54U U56A A73G A91G,-3.27
15,A17U A20U A37U G48U C96A U101C,≤ -4.2
16,A17U U44A C54G U55G G62C C87A C99U A150G G152C,≤ -4.2
17,A17U G42U C99A C105U A120U,≤ -4.2
18,A17G C93U,-0.578
19,A17G C93A,-2.46
20,A17G C93G,-2.89
21,A17G C27G A66G A107G A115C,≤ -4.2
22,C18G G83C C85U C96G A115C C116G U134A,≤ -4.2
23,A17G G59U G80A C85A,-0.447
24,A17G U53C A73G U139A A142U U146G,≤ -4.2

row,Variant,polymerase ribozyme fitness (log ratio)
1,C18G G84U,-1.93
2,A17G G48C G94A C95U,-3.29
3,A17G G84C,-1.85
4,A17U A47C C51G U61A G83A,≤ -4.2
5,A17U A22U C51U U55A C75A C85U U101A C114U A115G G124A,≤ -4.2
6,A17U C27G G58C C96A C116U,≤ -4.2
7,C18A A21G U33G C36A G84A G141C U144A C149U,≤ -4.2
8,C18G G94A,-1.09
9,C18A A23G A28C C43U A52C U146A,≤ -4.2
10,A17U U104A A106U G141C,≤ -4.2
11,A17U G67C A91C C95U G100U A106U,≤ -4.2
12,C18A A20U C69A G88U C93G C99G U111A G124A G140C,≤ -4.2
13,A17U U55G G68U G84A C103A G152A,≤ -4.2
14,C18A A20U G71C G92C G143U U144G,≤ -4.2
15,C18G A120C,-1.21
16,C18A A19C C35A,-2.88
17,C18G A49U A119G,-1.83
18,A17U G83U,-1.65
19,A17G C18A C69G U101G C105U A120U A142U,-1.71
20,C18G C43A A52C G71A A91U C95G U146C,≤ -4.2
21,C18G C85U U101C,-0.76
22,C18G A40U,0.0147
23,A17G C18G U31G G68A C87U G133U,≤ -4.2
24,A17G C85A C129A,-2.88

row,Variant,polymerase ribozyme fitness (log ratio)
1,A17U A22U A26G G34U C57U G59A C93U,≤ -4.2
2,C18G A49C G67U G84U A107U,≤ -4.2
3,C18G A52C C93G,≤ -4.2
4,A17G C51U U55G C79U G83U C95A C118G U145C,≤ -4.2
5,C18G C36G U78A C85A,≤ -4.2
6,A17G C63A C118G A142U,-2.32
7,C18G A20G G25C U33G G68U C96U A98G,≤ -4.2
8,C18G A19C G88A G92U C95U U134A,-4.03
9,C18G A20U G84U,-3.75
10,C18G A20C A52G A73U A120G,-3.02
11,C18G C85A U145G A147U,-0.193
12,A17G G62C G81A,-1.76
13,A17U G58U G74C G86A,≤ -4.2
14,C18G C57A U134G U145A,-3.18
15,A17U C38A U53A G74A C95U,≤ -4.2
16,A17G G62U G68U C96A C105G U134G,≤ -4.2
17,A17U A21U C43U G71A C75U C93A C114U A120U U151G,≤ -4.2
18,A17G G42C C43A C85A G143U,≤ -4.2
19,A17U A37G U82A U144A,-2.56
20,A17U U31G C32A A150G,≤ -4.2
21,A17U G58A C76U C87A A120G G133U,≤ -4.2
22,A17G G83U U134A,-2.39
23,A17U G48C G50U C76A C93A,≤ -4.2
